Measurements published in the Human Domainome abundance scans (Beltran et al. 2025).
± gives the uncertainty stated by the source.

B1: GAS2-like protein 1, residues 209 to 276; numbered along this chain, Q99501 (parent)
chain: DELVREILGRCTCPDQFPMIKVSEGKYRVGDSSLLIFVRVLRSHVMVRVGGGWDTLEHYLDKHDPCRC

Variants of: B1
Test: abundance fitness (aPCA) (normalised: wild type 0, dead -1); higher = more abundant; growth selection in yeast, the domain comes from the species named
Settings: Homo sapiens

Variant | abundance fitness
DELVREILGRCTCPDQFPMIKVSEGKYRVGDSSLLIFVRVLRSHVMVRVGCGWDTLEHYLDKHDPCRC [G51C] | -0.157 ± 0.077
DELVREILGRCTCPDQFPMIKVSEGKYRVGDSSLLIFVRVLRSHVMVRVGDGWDTLEHYLDKHDPCRC [G51D] | 0.176 ± 0.057
DELVREILGRCTCPDQFPMIKVSEGKYRVGDSSLLIFVRVLRSHVMVRVGEGWDTLEHYLDKHDPCRC [G51E] | 0.229 ± 0.065
DELVREILGRCTCPDQFPMIKVSEGKYRVGDSSLLIFVRVLRSHVMVRVGHGWDTLEHYLDKHDPCRC [G51H] | 0.004 ± 0.17
DELVREILGRCTCPDQFPMIKVSEGKYRVGDSSLLIFVRVLRSHVMVRVGIGWDTLEHYLDKHDPCRC [G51I] | -0.544 ± 0.12
DELVREILGRCTCPDQFPMIKVSEGKYRVGDSSLLIFVRVLRSHVMVRVGKGWDTLEHYLDKHDPCRC [G51K] | 0.056 ± 0.065
DELVREILGRCTCPDQFPMIKVSEGKYRVGDSSLLIFVRVLRSHVMVRVGLGWDTLEHYLDKHDPCRC [G51L] | -0.219 ± 0.043
DELVREILGRCTCPDQFPMIKVSEGKYRVGDSSLLIFVRVLRSHVMVRVGMGWDTLEHYLDKHDPCRC [G51M] | -0.15 ± 0.057
DELVREILGRCTCPDQFPMIKVSEGKYRVGDSSLLIFVRVLRSHVMVRVGPGWDTLEHYLDKHDPCRC [G51P] | -0.206 ± 0.072
DELVREILGRCTCPDQFPMIKVSEGKYRVGDSSLLIFVRVLRSHVMVRVGQGWDTLEHYLDKHDPCRC [G51Q] | -0.015 ± 0.067
DELVREILGRCTCPDQFPMIKVSEGKYRVGDSSLLIFVRVLRSHVMVRVGRGWDTLEHYLDKHDPCRC [G51R] | -0.159 ± 0.047
DELVREILGRCTCPDQFPMIKVSEGKYRVGDSSLLIFVRVLRSHVMVRVGTGWDTLEHYLDKHDPCRC [G51T] | 0.032 ± 0.051
DELVREILGRCTCPDQFPMIKVSEGKYRVGDSSLLIFVRVLRSHVMVRVGVGWDTLEHYLDKHDPCRC [G51V] | -0.363 ± 0.052
DELVREILGRCTCPDQFPMIKVSEGKYRVGDSSLLIFVRVLRSHVMVRVGWGWDTLEHYLDKHDPCRC [G51W] | -0.512 ± 0.074
DELVREILGRCTCPDQFPMIKVSEGKYRVGDSSLLIFVRVLRSHVMVRVGYGWDTLEHYLDKHDPCRC [G51Y] | -0.286 ± 0.098
DELVREILGRCTCPDQFPMIKVSEGKYRVGDSSLLIFVRVLRSHVMVRVGGAWDTLEHYLDKHDPCRC [G52A] | 0.065 ± 0.034
DELVREILGRCTCPDQFPMIKVSEGKYRVGDSSLLIFVRVLRSHVMVRVGGCWDTLEHYLDKHDPCRC [G52C] | -0.071 ± 0.066
DELVREILGRCTCPDQFPMIKVSEGKYRVGDSSLLIFVRVLRSHVMVRVGGDWDTLEHYLDKHDPCRC [G52D] | 0.013 ± 0.044
DELVREILGRCTCPDQFPMIKVSEGKYRVGDSSLLIFVRVLRSHVMVRVGGFWDTLEHYLDKHDPCRC [G52F] | -0.068 ± 0.05
DELVREILGRCTCPDQFPMIKVSEGKYRVGDSSLLIFVRVLRSHVMVRVGGHWDTLEHYLDKHDPCRC [G52H] | 0.077 ± 0.049

Variant | abundance fitness
DELVREILGRCTCPDQFPMIKVSEGKYRVGDSSLLIFVRVLRSHVMVRVGGIWDTLEHYLDKHDPCRC [G52I] | -0.038 ± 0.061
DELVREILGRCTCPDQFPMIKVSEGKYRVGDSSLLIFVRVLRSHVMVRVGGKWDTLEHYLDKHDPCRC [G52K] | 0.136 ± 0.062
DELVREILGRCTCPDQFPMIKVSEGKYRVGDSSLLIFVRVLRSHVMVRVGGLWDTLEHYLDKHDPCRC [G52L] | -0.004 ± 0.031
DELVREILGRCTCPDQFPMIKVSEGKYRVGDSSLLIFVRVLRSHVMVRVGGNWDTLEHYLDKHDPCRC [G52N] | -0.032 ± 0.068
DELVREILGRCTCPDQFPMIKVSEGKYRVGDSSLLIFVRVLRSHVMVRVGGPWDTLEHYLDKHDPCRC [G52P] | -0.669 ± 0.093
DELVREILGRCTCPDQFPMIKVSEGKYRVGDSSLLIFVRVLRSHVMVRVGGQWDTLEHYLDKHDPCRC [G52Q] | 0.166 ± 0.039
DELVREILGRCTCPDQFPMIKVSEGKYRVGDSSLLIFVRVLRSHVMVRVGGRWDTLEHYLDKHDPCRC [G52R] | 0.021 ± 0.031
DELVREILGRCTCPDQFPMIKVSEGKYRVGDSSLLIFVRVLRSHVMVRVGGSWDTLEHYLDKHDPCRC [G52S] | 0.063 ± 0.034
DELVREILGRCTCPDQFPMIKVSEGKYRVGDSSLLIFVRVLRSHVMVRVGGTWDTLEHYLDKHDPCRC [G52T] | 0.109 ± 0.038
DELVREILGRCTCPDQFPMIKVSEGKYRVGDSSLLIFVRVLRSHVMVRVGGVWDTLEHYLDKHDPCRC [G52V] | 0.089 ± 0.033
DELVREILGRCTCPDQFPMIKVSEGKYRVGDSSLLIFVRVLRSHVMVRVGGYWDTLEHYLDKHDPCRC [G52Y] | 0.08 ± 0.057
DELVREILGRCTCPDQFPMIKVSEGKYRVGDSSLLIFVRVLRSHVMVRVGGGCDTLEHYLDKHDPCRC [W53C] | -0.485 ± 0.38
DELVREILGRCTCPDQFPMIKVSEGKYRVGDSSLLIFVRVLRSHVMVRVGGGWGTLEHYLDKHDPCRC [D54G] | 0.115 ± 0.42
DELVREILGRCTCPDQFPMIKVSEGKYRVGDSSLLIFVRVLRSHVMVRVGGGWLTLEHYLDKHDPCRC [D54L] | -0.346 ± 0.3
DELVREILGRCTCPDQFPMIKVSEGKYRVGDSSLLIFVRVLRSHVMVRVGGGWDALEHYLDKHDPCRC [T55A] | -0.545 ± 0.074
DELVREILGRCTCPDQFPMIKVSEGKYRVGDSSLLIFVRVLRSHVMVRVGGGWDCLEHYLDKHDPCRC [T55C] | -0.785 ± 0.21
DELVREILGRCTCPDQFPMIKVSEGKYRVGDSSLLIFVRVLRSHVMVRVGGGWDDLEHYLDKHDPCRC [T55D] | -0.431 ± 0.081
DELVREILGRCTCPDQFPMIKVSEGKYRVGDSSLLIFVRVLRSHVMVRVGGGWDFLEHYLDKHDPCRC [T55F] | -0.263 ± 0.088
DELVREILGRCTCPDQFPMIKVSEGKYRVGDSSLLIFVRVLRSHVMVRVGGGWDGLEHYLDKHDPCRC [T55G] | -0.815 ± 0.11
